The supplement of paper PMC9170038

Tested on: K4 kissing-loop RNA reporter
Experiment: apparent KD of K4 kissing-loop reporter; higher = weaker reporter binding
Details: Eterna round: R107
Description: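 RNA-MaP round R107: designed RNA switches with theophylline, tryptophan, arginine or FMN aptamers are transcribed on-chip within common flanks. They are titrated with a labelled K4 kissing-loop RNA reporter in RNA-MaP buffer (100 mM Tris pH 7.5, 80 mM KCl, 4 mM MgCl2), without ligand or with the indicated ligand. Median apparent KD per design.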

[1] = input ligand: theophylline 20 uM
[2] = input ligand: tryptophan 2.4 mM
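Also: bound reporter read as fluorescence of individual clusters on recovered sequencing chips by microscopy, with normalized cluster intensities fitted with a binding model.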

Sequence | apparent KD of K4 kissing-loop reporter (input ligand: FMN 200 uM) [nM] | apparent KD of K4 kissing-loop reporter (input ligand: arginine 13.2 mM) [nM] | apparent KD of K4 kissing-loop reporter (input ligand: none) [nM] | apparent KD of K4 kissing-loop reporter [1] [nM] | apparent KD of K4 kissing-loop reporter [2] [nM]
GUAGAUAGGCAACAUCCCUAGUCUACAGACUAGGAUAUCAGGAAACUGAGAAGGAGUCUCCUUGCAGUGAUGUUGCAAGAAUAAU [[F]''-[K]'-[F]'-[F1]-[F2]-[K1]-[K2]_Design5] | 185 | 181 | 200 | 83.6 | 161
GUAGAUAGGCUACAUCUCUAGUCUAUAGACUAGGAUAUCAGGAAACUGAGAAGGAGUCUCAUUGGAGUGAUGUUCCAAGAAUAAU [KL-SSFMN-A15] | 120 | 115 | 114 | 133 | 85.1
GUAGGAUGAGGAGGAGGAUGAAUUACUGAAGGAGCGCAGAGAAAUGCAGGUAGGUCGCGGUAAAGAAGUAUAGUGAUGUUAUAUC [#09 K4 Arginine A Same State] | 775 | 308 | 657 | 526 | 598
GUAUCGCUAGGAGGAUAUUUCAAAUAAUAAAUAAAUGGAUAUACGGAGUGAUGUUCCGAUUUACGGAAAGAAGGCCUAGUGAUAC [FMN B 1] | 136 | 179 | 194 | 190 | 171
GUAUCGCUAGGAGGAUAUUUCAAAUAAUAAAUAAAUGGAUAUUCGGAGUGAUGUUCCGAUUUACGGAAAGAAGGCCUAGUGAUAC [FMN B 2] | 135 | 143 | 157 | 137 | 150
GUCGGGACUCGAGGAUAUCAGUGGAGGCCAGUGAUGUUGGCCGUCCCGGUAGUUAAAAUUUUACCCUGAGAAGGCGAUUUCUGUC [Veceinusqu] | 142 | 128 | 133 | 131 | 138
GUGCAGUGAUGUUGCACGAGGAAAGACGAUACCAGCCGUAAAUAAGGCCCUUGGCAGCGUGGGCUAGCAUAAAGUACGCUAGUCU [Mara] | 111 | 115 | 109 | 94 | 97.1
GUGCGGCUAGUGAUGUUGGUUGCGUGGGAAGGAGCGCAGAAACAUGCAGGUAGGUCGCCCACACCUCUGAAAGAAGGUUAAUUCA [Biistian] | 218 | 140 | 203 | 231 | 207
GUGCGGUGGAGGUUACCGCUACUCUGAGAAGGAGCGCAGAUGACUGCAGGUAGGUCGCUUAGAGCUUGCAGUGAUGUUGCAAGUU [Anquatbiat] | 199 | 147 | 159 | 132 | 177
GUUACGCAUGGAAGGAGCGCAGGCUCAACAAGUAGCUCAGUGAUGUUGAGCAUAUUAAUUCUGCAGGUAGGUCGCCAUGUGUAAC [Ex Arginine B K4 26] | 787 | 471 | 612 | 802 | 646
GUUACGCAUGGAAGGAGCGCUCUCAUACUUAAUAACACAGUGAUGUUGUGAAUUUGUAUAAAGCAGGUAGGUCGCCAUGUGUAAC [Ex Arginine B K4 7] | 417 | 323 | 424 | 379 | 346
GUUACGCAUGGAAGGAGCGCUCUCCGGUUGAUCGACACAGUGAUGUUGUGGUUCUACCGUAAGCAGGUAGGUCGCCAUGUGUAAC [Ex Arginine B K4 14] | 730 | 449 | 936 | 966 | 828
UAACUUGCAGUGAUGUUGCAAGAACUGGAUACCAGCAUGGAAACAUGCCCUUGGCAGCCAGAAGCUGGCUGCUUGUAAUGUCAGC [Design6] | 162 | 158 | 170 | 131 | 138
UAAGAAUAACAUGCAGUGAUGUUGCAUGUACGAGGACCGGUACGGCCGCCACUCGAGUCCUCGAACAUGCACCGAGGAAUAACAA [(H,1)-(H,2)-(Trp1)-(Trp2)-(T)'-(H)'-(T)''] | 201 | 118 | 116 | 161 | 402
UAAGAAUAAGUAGCAGUGAUGUUGCUACUGCGAGGACCGGUACGGCCGCCACUCGAGUCCUCGAAGCGUCACUGAACGAGGAAUA [whbob_SS_Tryp_A_m13] | 319 | 283 | 328 | 433 | 187
UAAGUCUUAUCGGCCGCCACUCAUUACACGAAGUGAUGUUUCGGGUUUUAGACAAAUAAUUUUUGGAGGACCGGGAUACGAGAAA [theeternabot_sameState_KL_Trp_B_49] | 162 | 113 | 139 | 148 | 114
UAAUAAAUUCCAGCGAUAUCGCUCUUCGAAGGAGCGGGCGAAAGUCCAGGUAGGUCGCGGAGAGUGAUGUUCUUUGCGGCGCUGG [whbob_Ex_Arginine_A_2t134] | 408 | 315 | 400 | 407 | 244
UAAUCCUAGUGAUAAUAAUCAAGUGGUGGGCGAGGACCGGUACGGCCGCCACUCGAAAAUGCAGUGAUGUUGUAAUCCGGAUAAU [Exclusion - Tryptophan A (Freestyle 5)] | 798 | 874 | 1080 | 872 | 450
UAAUCCUAGUGAUAAUAAUCAAGUGGUGGGCGAGGACCGGUACGGCCGCCACUCGAAUAUGCAGUGAUGUUGUAAUCCGGAUAAU [Exclusion - Tryptophan A (Freestyle 6)] | 667 | 926 | 919 | 894 | 594
UAAUGCAUGACGGCCGCCACUAGUACUGGAGUGAUGUUGUGGUACGGCGGCAGUAUAGGGUGGACUAGGACCGGGUCAUGCAUAU [KL-XTryp-B11 #analogue] | 598 | 443 | 597 | 547 | 567
UAAUUUAUGUCUUUAAUAUAAUUUUCAGAUACCAGUGAUUAUUAACACCCUUGGCAGCUGUAUAGAGUGAUGUUCUUAUGCUUAA [JR_ExcTheophyA_Sub009] | 213 | 314 | 237 | 321 | 156
UAAUUUAUUUCUUUUAUAUAAUAAUCAGAUACCAGUGAUUAAUGUCACCCUUGGCAGCUGUAUAGAGUGAUGUUCUAAUGCUUAA [JR_SSTheophyA_Sub022] | 176 | 169 | 142 | 233 | 147

Sequence | apparent KD of K4 kissing-loop reporter (input ligand: FMN 200 uM) [nM] | apparent KD of K4 kissing-loop reporter (input ligand: arginine 13.2 mM) [nM] | apparent KD of K4 kissing-loop reporter (input ligand: none) [nM] | apparent KD of K4 kissing-loop reporter [1] [nM] | apparent KD of K4 kissing-loop reporter [2] [nM]
UACAUAUCACUUUUUCUACAAUUAUUUAGUCAGGAUAUCGAUUAAACGAGAAGGGACAUUAUCAAGUGAUGUUUGAUAAUUCAAA [JR_Nu_SSFMNA_Sub028] | 156 | 129 | 118 | 159 | 124
UACCUAUUAUUAACACUAUAUACAACUGAAGGAGCGACAAUAAAGUCAGGUAGGUCGCAGAAUUAAUGAGUGAUGUUCAUUUUUA [JR_ExcArginiA_Sub014] | 84.3 | 136 | 95.3 | 110 | 59.7
UAGUCAUACAGAGGAUAUCGUAUGAGUGAUGUUCAUAUGCGUACAUCAACUUGAUGUACACCUAGACGAGAAGGCUGUAUGACUA [FMB B SS t6a] | 172 | 199 | 252 | 212 | 227
UAGUCCUAGUGAUCCUUAUCAAGUGGUGGGCGAGGACCGGUACGGCCGCCACUCGAAUAUGCAGUGAUGUUGUAAUCCGGAUAAU [Exclusion - Tryptophan A (Freestyle 10)] | 596 | 511 | 727 | 846 | 417
UAUGUACACUGGUAGUGGUACAUCGAGGAAGGAGCGUGCGCAGGCACAGGUAGGUCGCCUCAGCGCACGAGUGAUGUUCGUGGGC [Ceaqu] | 308 | 205 | 358 | 262 | 288
UAUUCUGUUCGAAAGAACGGAAUUUCGGAAGGAGCGCGAGAAAUCGCAGGUAGGUCGCCGAAAUUAUUAGGUAGUGAUGUUACCU [Arginine A K4 6] | 125 | 99.8 | 120 | 101 | 115
UCACGUGCCAGUGAUGUUGGCGUACGUGAUACCAGACGAAUAAAAGUCCCUUGGCAGCACAAAUAUGCCAAGUUAGAUGUAUGAU [Exclusion Theophylline A GF 2] | 125 | 122 | 121 | 116 | 116
UCCCGAGUGAUGUUUGGCUGAUGGAGUGAUACCAGUCCCUAGACUGACCCUUGGCAGCACGACUUGUACCAGGCGGAUCACCCUG [theeternabot_exclusion_KL_Theo_A_5] | 479 | 260 | 423 | 431 | 366
UCCUAGGCUCGAAAGAGCCUAGGAUUGACUCAGGAUAUCCGGAAACGGAGAAGGGAGUCACUAGUGAUGUUAGGGAUUCCCUAUU | 312 | 91.2 | 100 | 85.9 | 94.2
UCCUAUACCCUUCCCGGACGCCGUGGAGAUACCAGCCACGUAGCGGGCCCUUGGCAGCUCGAGUGAUGUUCGAGAUCGUCAGGAU [Veteve] | 136 | 124 | 127 | 128 | 135
UCCUGCAAUCCGCCACGAAAGUGGAUGGAUACCAGAGUCGAAAGACUCCCUUGGCAGCCAGUGAUGUUGGAAGCAGGUAAAUAAA | 819 | 645 | 715 | 656 | 596
UCCUGCAAUCUGCCACGAAAGUGGAUUGAUACCAGAGUCGAAAGACUCCCUUGGCAGCGAGUGAUGUUCGUAGCAGGUAAAUAAA [MatMod 6 - Jieux - Exclusion - Theophylline A] | 203 | 221 | 206 | 218 | 185
UCCUGCAAUCUGCCACGAAAGUGGAUUGAUACCAGAGUCGAAAGACUCCCUUGGCAGCGAGUGAUGUUCGUUGCAGGUAAAUAAA [MatMod 7 - Jieux - Exclusion - Theophylline A] | 181 | 178 | 175 | 170 | 149
UCGAAAUGCGUCUCCUAGUUUCUCCGGGAAGGAGCGUGGAUAACCGCAGGUAGGUCGCCCGGGAGCCGGACCAGUGAUGUUGGUC [Exclusion Arginine A Gf 30] | 181 | 211 | 197 | 207 | 164
UCGAACGAUGGAAGGAGCGCUCGUCAGUCCUGCGAGUGAUGUUCGUGGGUAAAUAGUCGCGAGCAGGUAGGUCGCCAUCUUGAGC [Indiermaar] | 130 | 120 | 131 | 128 | 125
UCGAUGGUCAGCGAUACCAGCCCAGUGAUGUUGGGCACAUGGUUGCGGAAAAUCCCAUUGGGCCCUUGGCAGCGCUUGCAUGGGU [Titiquesan] | 130 | 122 | 123 | 136 | 116
UCGCACCUGUGGGCGAGGCCUAUAAUUGUCAAGGAUAUAGAUCAUUCUAGAAGGUGACACUUCGCGAGUGAUGUUCGGGAAAUGC [theeternabot_sameState_KL_FMN_A_8] | 386 | 212 | 273 | 245 | 179
UCGCUCGAGUAAGGAUAUCAAUAUCAAAGGUCGUAGUGAUGUUAUACCAGGCCAAUUUGGCGGUAGUGAGAAGGUACUAGCAGUU [theeternabot_sameState_KL_FMN_B_38] | 1090 | 294 | 688 | 461 | 405
UCUCGGGCCAGUGAUGUUGGCGGCAAGUGGCGAGGACCGGUACGGCCGCCACUCGGCGCAGCAGCGGAGUGAUGUUUCGUGAGUA [Same State Tryptophan A GF 16] | 297 | 1240 | 1230 | 387 | 675
UCUGCUGUAUAUGAUACCAGCAGUGAGAGACCAGAAGUAUAGUGAUGUUAUAUGAGAGAAUGCCCUUGGCAGCGUGUGCGGGUGG [SSTheophylB.Z] | 85.4 | 87.6 | 67.5 | 84.7 | 61.6
UGACAUUGCUCAGAUACCAGACCUGAGGAUCACCCUGGUGCCAAACGUACAAUAAUAAAUGUCCCUUGGCAGCUGAGCAAUGUCU [TheoBX 14] | 77.8 | 27.6 | 44.9 | 139 | 52.4
